Measurements: paper PMC10585736

B1: Pol30p (PCNA), wild type, two-hybrid prey (pBL240-PCNA-Gal4AD) [S. cerevisiae] / Rrm3p, two-hybrid bait [S. cerevisiae] (parent)
chain 1: MLEAKFEEASLFKRIIDGFKDCVQLVNFQCKEDGIIAQAVDDSRVLLVSLEIGVEAFQEYRCDHPVTLGMDLTSLSKILRCGNNTDTLTLIADNTPDSIILLFEDTKKDRIAEYSLKLMDIDADFLKIEELQYDSTLSLPSSEFSKIVRDLSQLSDSINIMITKETIKFVADGDIGSGSVIIKPFVDMEHPETSIKLEMDQPVDLTFGAKYLLDIIKGSSLSDRVGIRLSSEAPALFQFDLKSGFLQFFLAPKFNDEE
chain 2: MFRSHASGNKKQWSKRSSNGSTPAASASGSHAYRQQTLSSFFMGCGKKSAAASKNSTTIIDLESGDEGNRNITAPPRPRLIRNNSSSLFSQSQGSFGDDDPDAEFKKLVDVPRLNSYKKSSRSLSMTSSLHKTASASTTQKTYHFDEDETLREVTSVKSNSRQLSFTSTINIEDSSMKLSTDSERPAKRSKPSMEFQGLKLTVPKKIKPLLRKTVSNMDSMNHRSASSPVVLTMEQERVVNLIVKKRTNVFYTGSAGTGKSVILQTIIRQLSSLYGKESIAITASTGLAAVTIGGSTLHKWSGIGIGNKTIDQLVKKIQSQKDLLAAWRYTKVLIIDEISMVDGNLLDKLEQIARRIRKNDDPFGGIQLVLTGDFFQLPPVAKKDEHNVVKFCFESEMWKRCIQKTILLTKVFRQQDNKLIDILNAIRYGELTVDIAKTIRNLNRDIDYADGIAPTELYATRREVELSNVKKLQSLPGDLYEFKAVDNAPERYQAILDSSLMVEKVVALKEDAQVMMLKNKPDVELVNGSLGKVLFFVTESLVVKMKEIYKIVDDEVVMDMRLVSRVIGNPLLKESKEFRQDLNARPLARLERLKILINYAVKISPHKEKFPYVRWTVGKNKYIHELMVPERFPIDIPRENVGLERTQIPLMLCWALSIHKAQGQTIQRLKVDLRRIFEAGQVYVALSRAVTMDTLQVLNFDPGKIRTNERVKDFYKRLETLK

Variants of: B1
Experiment: yeast two-hybrid (β-galactosidase)
Details: with Rrm3p, prey Pol30-6p, parent: 1.3, read off a plot

Question: With chain 1 D41A D42A as the variant, how does the response (U/mg of protein) read?
Answer: Its response (U/mg of protein) is 0.58.

Same assay, conditions: with Rrm3p, prey Pol30-8p, parent: 1.3, read off a plot

Question: chain 1 R61A D63A was tested. Which response (U/mg of protein) did it give?
Answer: Its response (U/mg of protein) is 0.75.

Same assay, conditions: with Rrm3p, prey Pol30-79p, parent: 1.3, read off a plot

Question: With chain 1 L126A I128A as the variant, how does the response (U/mg of protein) read?
Answer: The response (U/mg of protein) was 1.3.
